Laboratory results published in ChEMBL document CHEMBL1122882, “3,4-O-diacetylisoproterenol. Preparation, structure proof, and beta-receptor effect” (1985).

Assays:
[1] = system: CC(=O)Oc1ccc(C(O)CNC(C)C)cc1OC(C)=O; conditions: Cerebral cortex
Description: (§1) Evaluated for the affinity in stimulating cAMP synthesis by beta-1 adrenergic receptor in rat cerebral cortex.

[2] = system: CC(=O)Oc1ccc(C(Cl)CNC(C)C)cc1OC(C)=O; conditions: Cerebral cortex
Description: as §1

Sequence of Beta-1 adrenergic receptor (Rattus norvegicus), P18090 (P18090 whole entry): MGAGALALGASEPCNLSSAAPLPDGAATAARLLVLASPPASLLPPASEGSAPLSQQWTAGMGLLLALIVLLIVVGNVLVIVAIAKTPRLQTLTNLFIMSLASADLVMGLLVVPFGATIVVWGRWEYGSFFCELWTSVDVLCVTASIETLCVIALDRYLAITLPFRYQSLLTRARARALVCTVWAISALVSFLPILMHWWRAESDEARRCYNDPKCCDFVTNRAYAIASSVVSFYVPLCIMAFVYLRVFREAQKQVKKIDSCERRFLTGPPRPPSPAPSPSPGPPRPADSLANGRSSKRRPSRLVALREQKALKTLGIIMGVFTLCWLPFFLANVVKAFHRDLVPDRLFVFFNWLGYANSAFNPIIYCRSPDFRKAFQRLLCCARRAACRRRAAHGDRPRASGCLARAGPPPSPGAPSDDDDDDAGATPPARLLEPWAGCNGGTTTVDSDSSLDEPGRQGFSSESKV

Substance: Beta-1 adrenergic receptor (Rattus norvegicus), P18090
- Km [1]: 25 µM
- Km [2]: 28 µM
